Laboratory results from PMC7601328.

Target: RNA polymerase holoenzyme (beta, beta', alpha, omega, sigma) (Escherichia coli) (UniProt P0A8V2+P0A8T7+P0A7Z4+P0A800+P00579)
Assay: EMSA
Conditions: 40 mM Hepes-KOH pH 8, 50 mM KCl, 10 mM Mg acetate, 0.5 mM DTT, 0.005% NP40, 50 uM ATP, 30 C; ~0.3 pmol DNA and 7 pmol RNAP in 200 uL; time course, heparin …

Sequence: GTGCTGCGAAATCATCGGTGTAAATAGGGCTATATGCCGCGTCTTTTCTGGCTAATTTTATGAAAAGATATTTATTGGCGGCACAAAATAAAGAACAATTTTGAATTCCTTACATTCCTGGCTATTGCACAACTGAATTTAAGGCTCTATTATTACCTCAACAAACCACCCCAATATAAGTTTGAGATTACTACAATGAGCGAAGCACTTAAAATTCTGAA (double strand) [hns promoter fragment, 221 bp (-159 to +62)]
- binding: binds
